Reference: patent publication US20130195871A1 (AbbVie / Abbott, published 2013)
Each block holds one binder with its values, some of them ahead of it.

Key:
[1] = target: T1, Recombinant Human IGF1R (human, UniProt P08069 31-932); experiment: SPR (Biacore), C-terminal VD;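 further: surface plasmon resonance with DVD-Ig proteins captured on an anti-IgG chip and recombinant antigen flowed over in HBS-EP buffer, Langmuir global fit, KD taken as koff/kon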
T1 construct: bought reagent
Experimental: (§1) The BIACORE assay (Biacore, Inc, Piscataway, N.J.) determined the affinity of antibodies or DVD-Ig proteins with kinetic measurements of on-rate and off-rate constants. Binding of antibodies or DVD-Ig proteins to a target antigen (for example, a purified recombinant target antigen) was determined by surface plasmon resonance-based measurements with a Biacore® 1000 or 3000 instrument (Biacore AB, Uppsala. Sweden) using running HBS-EP (10 mM HEPES [pH 7.4], 150 mM NaCl, 3 mM EDTA, and 0.005% surfactant P20) at 25° C. […] For example, approximately 5000 RU of goat anti-mouse IgG, (Fcγ), fragment specific polyclonal antibody (Pierce Biotechnology Inc, Rockford, Ill.) diluted in 10 mM sodium acetate (pH 4.5) was directly immobilized across a CM5 research grade biosensor chip using a standard amine coupling kit according to manufacturer's instructions and procedures at 25 μg/ml. Unreacted moieties on the biosensor surface were blocked with ethanolamine. Modified carboxymethyl dextran surface in flowcell 2 and 4 was used as a reaction surface. Unmodified carboxymethyl dextran without goat anti-mouse IgG in flow cell 1 and 3 was used as the reference surface. For kinetic analysis, rate equations derived from the 1:1 Langmuir binding model were fitted simultaneously to association and dissociation phases of all eight injections (using global fit analysis) with the use of Biaevaluation 4.0.1 software. Purified antibodies or DVD-Ig proteins were diluted in HEPES-buffered saline for capture across goat anti-mouse IgG specific reaction surfaces. Antibodies or DVD-Ig proteins to be captured as a ligand (25 μg/ml) were injected over reaction matrices at a flow rate of 5 μl/minute. The association and dissociation rate constants, kₒₙ (M⁻¹s⁻¹) and koff (s⁻¹) were determined under a continuous flow rate of 25 μl/minute. Rate constants were derived by making kinetic binding measurements at different antigen concentrations ranging from 10-200 nM. The equilibrium dissociation constant (M) of the reaction between antibodies or DVD-Ig proteins and the target antigen was then calculated from the kinetic rate constants by the following formula: KD=koff/kₒₙ. Binding was recorded as a function of time and kinetic rate constants were calculated.

[2] = target: T2, Recombinant Human MSP Receptor ECD-His tag (human, UniProt Q04912 25-957); experiment: SPR (Biacore), N-terminal VD;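 further: capture of antibodies or DVD-Ig proteins on an anti-mouse IgG chip surface, recombinant antigen injected at 10–200 nM in HBS-EP running buffer at 25 °C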
T2 construct: extracellular domain; bought reagent; also called RON
Experimental: as §1

[3] = target: T1, Recombinant Human IGF1R; experiment: SPR (Biacore)
Experimental: as §1

B1: DVD2279 (bispecific antibody)
VH: EVQLVESGGGLVQPGGSLRLSCAASGFTFSIYSMNWVRQAPGKGLEWVSYISSSSSTIYYADSVKGRFTISRDNAKNSLYLQMNSLRDEDTAVYYCARDRGDFDAFDIWGQGTMVTVSSASTKGPEVQLVQSGAEVKKPGSSVKVSCKASGGTFSSYAISWVRQAPGQGLEWMGGIIPIFGTANYAQKFQGRVTITADKSTSTAYMELSSLRSEDTAVYYCARAPLRFLEWSTQDHYYYYYMDVWGKGTTVTVSS
VL: DIQMTQSPSSLSASVGDRVTITCQASQDITNYLNWYQQKPGKAPKLLIYDASNLETGVPSRFSGSGSGTDFTFTISSLQPEDIATYNCQQCENFPITFGQGTRLEIKRTVAAPSSELTQDPAVSVALGQTVRITCQGDSLRSYYATWYQQKPGQAPILVIYGENKRPSGIPDRFSGSSSGNTASLTITGAQAEDEADYYCKSRDGSGQHLVFGGGTKLTVL
notes: DVD-Ig, outer AB063 / inner AB075
Kd [1]: 0.047 nM
koff [1]: 2.3e-06 s⁻¹
kon [1]: 49000 M⁻¹ s⁻¹

B3: DVD2283 (bispecific antibody)
VH: QVQLQQWGAGLLKPSETLSLTCAVYGGSFSGYYWSWIRQPPGKGLEWIGEINHSGSTNYNPSLKSRVTISVETSKNQFSLKLSSVTAADTAVYYCARDKWTWYFDLWGRGTLVTVSSASTKGPEVQLVQSGAEVKKPGSSVKVSCKASGGTFSSYAISWVRQAPGQGLEWMGGIIPIFGTANYAQKFQGRVTITADKSTSTAYMELSSLRSEDTAVYYCARAPLRFLEWSTQDHYYYYYMDVWGKGTTVTVSS
VL: DIEMTQSPDSLAVSLGERATINCRSSQSVLYSSSNRNYLAWYQQNPGQPPKLLIYWASTRESGVPDRFSGSGSGTDFTLTISSLQAEDVAVYYCQQYYSTPRTFGQGTKVEIKRTVAAPSSELTQDPAVSVALGQTVRITCQGDSLRSYYATWYQQKPGQAPILVIYGENKRPSGIPDRFSGSSSGNTASLTITGAQAEDEADYYCKSRDGSGQHLVFGGGTKLTVL
notes: DVD-Ig, outer AB062 / inner AB075
Kd [1]: 5 nM
koff [1]: 0.00012 s⁻¹
kon [1]: 25000 M⁻¹ s⁻¹

B5: DVD2214 (bispecific antibody)
VH: EVQLVQSGAEVKKPGSSVKVSCKASGGTFSSYAISWVRQAPGQGLEWMGGIIPIFGTANYAQKFQGRVTITADKSTSTAYMELSSLRSEDTAVYYCARAPLRFLEWSTQDHYYYYYMDVWGKGTTVTVSSASTKGPEVQLLESGGGLVQPGGSLRLSCTASGFTFSSYAMNWVRQAPGKGLEWVSAISGSGGTTFYADSVKGRFTISRDNSRTTLYLQMNSLRAEDTAVYYCAKDLGWSDSYYYYYGMDVWGQGTTVTVSS
VL: SSELTQDPAVSVALGQTVRITCQGDSLRSYYATWYQQKPGQAPILVIYGENKRPSGIPDRFSGSSSGNTASLTITGAQAEDEADYYCKSRDGSGQHLVFGGGTKLTVLGQPKAAPDIQMTQFPSSLSASVGDRVTITCRASQGIRNDLGWYQQKPGKAPKRLIYAASRLHRGVPSRFSGSGSGTEFTLTISSLQPEDFATYYCLQHNSYPCSFGQGTKLEIK
notes: DVD-Ig, outer AB075 / inner AB011
Kd [3]: 5.5 nM
koff [3]: 0.00014 s⁻¹
kon [3]: 26000 M⁻¹ s⁻¹

B6: DVD2216 (bispecific antibody)
VH: B5 VH
VL: SSELTQDPAVSVALGQTVRITCQGDSLRSYYATWYQQKPGQAPILVIYGENKRPSGIPDRFSGSSSGNTASLTITGAQAEDEADYYCKSRDGSGQHLVFGGGTKLTVLGQPKAAPSVTLFPPDIQMTQFPSSLSASVGDRVTITCRASQGIRNDLGWYQQKPGKAPKRLIYAASRLHRGVPSRFSGSGSGTEFTLTISSLQPEDFATYYCLQHNSYPCSFGQGTKLEIK
notes: as for B5
Kd [3]: 6.6 nM
koff [3]: 0.00012 s⁻¹
kon [3]: 19000 M⁻¹ s⁻¹

Further lines, results first:

binding result [1]: no binding (tested: 10-200 nM)
Kd [2]: 23 nM
B2: DVD2340 (bispecific antibody)
VH: QVQLQESGPGLVKPSEILSLTCTVSGGSISSHYWSWVRQPPGKGLEWIGYIYYSGSTNYNPSLKSRVTISVDTSKNQFSLNLSSVTAADTAVYYCARIPNYYDRSGYYPGYWYFDLWGRGTLVTVSSASTKGPEVQLLESGGGLVQPGGSLRLSCTASGFTFSSYAMNWVRQAPGKGLEWVSAISGSGGTTFYADSVKGRFTISRDNSRTTLYLQMNSLRAEDTAVYYCAKDLGWSDSYYYYYGMDVWGQGTTVTVSS
VL: QAVLTQPSSLSAPPGASASLTCTLRSGFNVDSYRISWYQQKPGSPPQYLLRYKSDSDKQQGSGVPSRFSGSKDASANAGILLISGLQSEDEADYYCMIWHSSAWVFGGGTKLTVLRQPKAAPDIQMTQFPSSLSASVGDRVTITCRASQGIRNDLGWYQQKPGKAPKRLIYAASRLHRGVPSRFSGSGSGTEFTLTISSLQPEDFATYYCLQHNSYPCSFGQGTKLEIK
notes: DVD-Ig, outer AB034 / inner AB011

binding result [1]: no binding (tested: 10-200 nM)
Kd [2]: 40 nM
B4: DVD2336 (bispecific antibody)
VH: QVQLQESGPGLVKPSEILSLTCTVSGGSISSHYWSWVRQPPGKGLEWIGYIYYSGSTNYNPSLKSRVTISVDTSKNQFSLNLSSVTAADTAVYYCARIPNYYDRSGYYPGYWYFDLWGRGTLVTVSSASTKGPEVQLVQSGGGLVKPGGSLRLSCAASGFTFSSFAMHWVRQAPGKGLEWISVIDTRGATYYADSVKGRFTISRDNAKNSLYLQMNSLRAEDTAVYYCARLGNFYYGMDVWGQGTTVTVSS
VL: QAVLTQPSSLSAPPGASASLTCTLRSGFNVDSYRISWYQQKPGSPPQYLLRYKSDSDKQQGSGVPSRFSGSKDASANAGILLISGLQSEDEADYYCMIWHSSAWVFGGGTKLTVLRQPKAAPEIVLTQSPGTLSVSPGERATLSCRASQSIGSSLHWYQQKPGQAPRLLIKYASQSLSGIPDRFSGSGSGTDFTLTISRLEPEDFAVYYCHQSSRLPHTFGQGTKVEIK
notes: DVD-Ig, outer AB034 / inner AB077

binding result [1]: no binding (tested: 10-200 nM)
Kd [2]: 21 nM
koff [2]: 0.00091 s⁻¹
B7: DVD2326 (bispecific antibody)
VH: EVQLVQSGGGLVKPGGSLRLSCAASGFTFSSYAMHWVRQAPGKGLEWVAVISYDGSNKYYADSVKGRFTISRDNSKNTLYLQMNSLRAEDTAVYYCARFSGWPNNYYYYGMDVWGQGTTVTVSSASTKGPEVQLLESGGGLVQPGGSLRLSCTASGFTFSSYAMNWVRQAPGKGLEWVSAISGSGGTTFYADSVKGRFTISRDNSRTTLYLQMNSLRAEDTAVYYCAKDLGWSDSYYYYYGMDVWGQGTTVTVSS
VL: DVVMTQSPLSLPVTPGEPASISCRSSQSLLHSNGFNYVDWYLQKPGQSPHLLIYFGSYRASGVPDRFSGSGSGTDFTLKISRVEAEDVGVYYCMQALQTPPWTFGQGTKVEIRRTVAAPDIQMTQFPSSLSASVGDRVTITCRASQGIRNDLGWYQQKPGKAPKRLIYAASRLHRGVPSRFSGSGSGTEFTLTISSLQPEDFATYYCLQHNSYPCSFGQGTKLEIK
notes: DVD-Ig, outer AB005 / inner AB011

binding result [1]: no binding (tested: 10-200 nM)
Kd [2]: 21 nM
koff [2]: 0.00093 s⁻¹
kon [2]: 44000 M⁻¹ s⁻¹
B8: DVD2324 (bispecific antibody)
VH: EVQLVQSGGGLVKPGGSLRLSCAASGFTFSSYAMHWVRQAPGKGLEWVAVISYDGSNKYYADSVKGRFTISRDNSKNTLYLQMNSLRAEDTAVYYCARFSGWPNNYYYYGMDVWGQGTTVTVSSASTKGPEVQLVQSGGGLVKPGGSLRLSCAASGFTFSSFAMHWVRQAPGKGLEWISVIDTRGATYYADSVKGRFTISRDNAKNSLYLQMNSLRAEDTAVYYCARLGNFYYGMDVWGQGTTVTVSS
VL: DVVMTQSPLSLPVTPGEPASISCRSSQSLLHSNGFNYVDWYLQKPGQSPHLLIYFGSYRASGVPDRFSGSGSGTDFTLKISRVEAEDVGVYYCMQALQTPPWTFGQGTKVEIRRTVAAPEIVLTQSPGTLSVSPGERATLSCRASQSIGSSLHWYQQKPGQAPRLLIKYASQSLSGIPDRFSGSGSGTDFTLTISRLEPEDFAVYYCHQSSRLPHTFGQGTKVEIK
notes: DVD-Ig, outer AB005 / inner AB077
